Patent US20160355553A1 (Janssen / Centocor, published 2016)
Residue numbers refer to the chain shown, from its start.

Tests used:
[1] = molecular target: T1, Mal2506-04 B-m2-CL1+5 (influenza B virus, UniProt P03461 6-574); test: FACS, transfected cells
T1 chain: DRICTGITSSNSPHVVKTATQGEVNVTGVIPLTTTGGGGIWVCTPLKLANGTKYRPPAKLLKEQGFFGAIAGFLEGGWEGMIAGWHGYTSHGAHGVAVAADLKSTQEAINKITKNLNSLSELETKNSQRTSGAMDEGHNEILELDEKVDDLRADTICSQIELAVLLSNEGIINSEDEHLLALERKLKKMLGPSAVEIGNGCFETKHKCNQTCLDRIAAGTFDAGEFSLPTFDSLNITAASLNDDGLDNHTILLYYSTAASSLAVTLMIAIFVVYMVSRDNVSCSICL

[2] = molecular target: T2, FL4-06 B-m2-CL1+5-GCN4a (influenza B virus, UniProt P03461 6-574); test: FACS, transfected cells
T2 chain: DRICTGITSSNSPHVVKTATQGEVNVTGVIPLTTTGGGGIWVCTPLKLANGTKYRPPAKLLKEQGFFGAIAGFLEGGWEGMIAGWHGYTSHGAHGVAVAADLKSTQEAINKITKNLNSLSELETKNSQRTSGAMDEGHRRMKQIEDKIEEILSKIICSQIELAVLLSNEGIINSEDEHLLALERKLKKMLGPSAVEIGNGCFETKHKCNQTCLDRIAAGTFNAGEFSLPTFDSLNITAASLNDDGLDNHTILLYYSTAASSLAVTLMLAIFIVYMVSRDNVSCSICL

[3] = molecular target: T3, Mal2506-04 B-m2-CL1+5-GCN4b (influenza B virus, UniProt P03461 6-574); test: FACS, transfected cells
T3 chain: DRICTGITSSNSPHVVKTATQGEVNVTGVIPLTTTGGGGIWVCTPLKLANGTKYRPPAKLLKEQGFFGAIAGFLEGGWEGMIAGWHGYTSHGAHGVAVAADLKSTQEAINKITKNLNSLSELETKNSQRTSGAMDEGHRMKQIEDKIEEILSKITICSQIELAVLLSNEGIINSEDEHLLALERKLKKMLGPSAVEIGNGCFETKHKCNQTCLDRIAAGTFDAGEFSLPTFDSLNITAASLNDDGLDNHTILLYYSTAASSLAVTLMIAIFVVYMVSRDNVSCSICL

[4] = molecular target: FL4-06 B-m2 (influenza B virus, UniProt P03461 6-574); test: FACS, transfected cells
[5] = molecular target: T4, FL4-06 B-m2-CL1+5 (influenza B virus, UniProt P03461 6-574); test: FACS, transfected cells
T4 chain: T1 chain with D222N, I268L, V272I

[6] = molecular target: T5, Mal2506-04 B-m2-CL1+5-GCN4a (influenza B virus, UniProt P03461 6-574); test: FACS, transfected cells
T5 chain: T2 chain with N222D, L268I, I272V

[7] = molecular target: mini4 cluster11 (A/Brisbane/59/2007) (influenza A virus H1N1, UniProt A8C8J4 18-565); test: FACS on HEK293F
[8] = molecular target: H1 FL HA A/Puerto Rico/8/1934 (influenza A virus H1N1, UniProt P03452 18-565); test: FACS on HEK293F
[9] = molecular target: miniHA cluster1+3 (A/Brisbane/59/2007) (influenza A virus H1N1, UniProt A8C8J4 18-565); test: FACS on HEK293F
[10] = molecular target: miniHA cluster1+2+3 (A/Brisbane/59/2007) (influenza A virus H1N1, UniProt A8C8J4 18-565); test: FACS on HEK293F
[11] = molecular target: H1-PR8-dH1 (influenza A virus H1N1, UniProt P03452 18-565); test: FACS on HEK293F
[12] = molecular target: H1 Full-length (A/Brisbane/59/2007) (influenza A virus H1N1, UniProt B4URD6 18-565); test: FACS on HEK293F
[13] = molecular target: miniHA cluster1 (A/Brisbane/59/2007) (influenza A virus H1N1, UniProt A8C8J4 18-565); test: FACS on HEK293F
[14] = molecular target: miniHA cluster1+2+3+4 (A/Brisbane/59/2007) (influenza A virus H1N1, UniProt A8C8J4 18-565); test: FACS on HEK293F
[15] = molecular target: miniHA cluster1+2 (A/Brisbane/59/2007) (influenza A virus H1N1, UniProt A8C8J4 18-565); test: FACS on HEK293F

B1: CR9114 (antibody, V domains shown)
VH: QVQLVQSGAEVKKPGSSVKVSCKSSGGTSNNYAISWVRQAPGQGLDWMGGISPIFGSTAYAQKFQGRVTISADIFSNTAYMELNSLTSEDTAVYFCARHGNYYYYSGMDVWGQGTTVTVSS
VL: SYVLTQPPAVSGTPGQRVTISCSGSDSNIGRRSVNWYQQFPGTAPKLLIYSNDQRPSVVPDRFSGSKSGTSASLAISGLQSEDEAEYYCAAWDDSLKGAVFGGGTQLTVL
[1]
  binding result: no binding
[2]
  binding result: no binding
[3]
  binding result: no binding
[4]
  binding result: no binding
[5]
  binding result: no binding
[6]
  binding result: no binding

B2: CR8057 (antibody, V domains shown)
VH: EVQLVESGGGLVQPGGSLRLSCAASGFTDSVIFMSWVRQAPGKGLECVSIIYIDDSTYYADSVKGRFTISRHNSMGTVFLEMNSLRPDDTAVYYCATESGDFGDQTGPYHYYAMDV
VL: QSALTQPASVSGSPGQSITISCTGSSGDIGGYNAVSWYQHHPGKAPKLMIYEVTSRPSGVSDRFSASRSGDTASLTVSGLQAEDEAHYYCCSFADSNILI
[7]
  binding result: no binding (tested: 5 ug/ml)
[8]
  binding result: no binding (tested: 5 ug/ml)
[9]
  binding result: no binding (tested: 5 ug/ml)
[10]
  binding result: no binding (tested: 5 ug/ml)
[11]
  binding result: no binding (tested: 5 ug/ml)
[12]
  binding result: no binding (tested: 5 ug/ml)
[13]
  binding result: no binding (tested: 5 ug/ml)
[14]
  binding result: no binding (tested: 5 ug/ml)
[15]
  binding result: no binding (tested: 5 ug/ml)
